Experiments:
[1] = molecular target: Grb2 SH2 (UniProt P62993); test: SH2 binding enrichment of the phosphorylated peptide, bacterial display (enrichment ratio); higher = better substrate or ligand; peptides without Tyr show the background
[2] = molecular target: c-Src SH2; test: as above
[3] = molecular target: SHP2-C SH2; test: as above
[4] = molecular target: Fes (UniProt P07332); test: phosphorylation enrichment, bacterial display (enrichment ratio); higher = better substrate or ligand; peptides without Tyr show the background
Chain of Fes (P07332 whole entry, looked up): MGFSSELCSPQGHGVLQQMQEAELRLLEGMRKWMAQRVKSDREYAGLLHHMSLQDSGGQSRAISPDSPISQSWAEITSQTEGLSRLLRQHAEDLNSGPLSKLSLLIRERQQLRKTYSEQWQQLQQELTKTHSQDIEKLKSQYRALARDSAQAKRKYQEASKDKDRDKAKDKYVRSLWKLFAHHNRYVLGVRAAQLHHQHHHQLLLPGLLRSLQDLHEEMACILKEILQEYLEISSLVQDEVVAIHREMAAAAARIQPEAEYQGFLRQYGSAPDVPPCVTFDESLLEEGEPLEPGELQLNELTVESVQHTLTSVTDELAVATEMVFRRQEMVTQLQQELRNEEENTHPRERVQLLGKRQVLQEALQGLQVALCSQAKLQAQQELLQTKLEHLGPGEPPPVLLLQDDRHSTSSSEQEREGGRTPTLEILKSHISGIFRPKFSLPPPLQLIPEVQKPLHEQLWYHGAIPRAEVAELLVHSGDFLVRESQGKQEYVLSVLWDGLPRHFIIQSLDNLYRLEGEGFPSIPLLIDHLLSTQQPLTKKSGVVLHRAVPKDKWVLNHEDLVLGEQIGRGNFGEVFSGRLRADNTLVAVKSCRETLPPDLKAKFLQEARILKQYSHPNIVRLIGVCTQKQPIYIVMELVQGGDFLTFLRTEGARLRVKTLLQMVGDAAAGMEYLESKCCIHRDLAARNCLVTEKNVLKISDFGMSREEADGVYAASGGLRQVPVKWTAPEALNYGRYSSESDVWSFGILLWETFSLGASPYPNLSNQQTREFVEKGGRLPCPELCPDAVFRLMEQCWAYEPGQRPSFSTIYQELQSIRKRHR

[5] = molecular target: Hck (UniProt P08631); test: as above
Chain of Hck (P08631 whole entry, looked up): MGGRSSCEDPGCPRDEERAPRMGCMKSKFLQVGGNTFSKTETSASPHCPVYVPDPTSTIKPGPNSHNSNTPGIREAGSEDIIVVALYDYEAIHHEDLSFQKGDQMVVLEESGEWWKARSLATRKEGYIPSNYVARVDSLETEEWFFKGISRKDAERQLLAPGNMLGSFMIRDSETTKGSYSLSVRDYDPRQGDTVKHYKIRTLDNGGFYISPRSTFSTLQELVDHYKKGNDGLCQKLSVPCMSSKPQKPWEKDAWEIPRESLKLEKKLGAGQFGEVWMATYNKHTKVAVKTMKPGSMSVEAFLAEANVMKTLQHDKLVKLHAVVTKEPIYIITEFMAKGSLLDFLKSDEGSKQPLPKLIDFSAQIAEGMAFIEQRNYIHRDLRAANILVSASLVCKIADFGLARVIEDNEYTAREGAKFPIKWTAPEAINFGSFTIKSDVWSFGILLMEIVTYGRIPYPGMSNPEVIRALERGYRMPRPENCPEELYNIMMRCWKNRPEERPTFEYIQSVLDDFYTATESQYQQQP

[6] = molecular target: EPHB1 (UniProt P54762); test: as above
[7] = molecular target: MERTK (UniProt Q12866); test: as above
Chain of MERTK (Q12866 whole entry, looked up): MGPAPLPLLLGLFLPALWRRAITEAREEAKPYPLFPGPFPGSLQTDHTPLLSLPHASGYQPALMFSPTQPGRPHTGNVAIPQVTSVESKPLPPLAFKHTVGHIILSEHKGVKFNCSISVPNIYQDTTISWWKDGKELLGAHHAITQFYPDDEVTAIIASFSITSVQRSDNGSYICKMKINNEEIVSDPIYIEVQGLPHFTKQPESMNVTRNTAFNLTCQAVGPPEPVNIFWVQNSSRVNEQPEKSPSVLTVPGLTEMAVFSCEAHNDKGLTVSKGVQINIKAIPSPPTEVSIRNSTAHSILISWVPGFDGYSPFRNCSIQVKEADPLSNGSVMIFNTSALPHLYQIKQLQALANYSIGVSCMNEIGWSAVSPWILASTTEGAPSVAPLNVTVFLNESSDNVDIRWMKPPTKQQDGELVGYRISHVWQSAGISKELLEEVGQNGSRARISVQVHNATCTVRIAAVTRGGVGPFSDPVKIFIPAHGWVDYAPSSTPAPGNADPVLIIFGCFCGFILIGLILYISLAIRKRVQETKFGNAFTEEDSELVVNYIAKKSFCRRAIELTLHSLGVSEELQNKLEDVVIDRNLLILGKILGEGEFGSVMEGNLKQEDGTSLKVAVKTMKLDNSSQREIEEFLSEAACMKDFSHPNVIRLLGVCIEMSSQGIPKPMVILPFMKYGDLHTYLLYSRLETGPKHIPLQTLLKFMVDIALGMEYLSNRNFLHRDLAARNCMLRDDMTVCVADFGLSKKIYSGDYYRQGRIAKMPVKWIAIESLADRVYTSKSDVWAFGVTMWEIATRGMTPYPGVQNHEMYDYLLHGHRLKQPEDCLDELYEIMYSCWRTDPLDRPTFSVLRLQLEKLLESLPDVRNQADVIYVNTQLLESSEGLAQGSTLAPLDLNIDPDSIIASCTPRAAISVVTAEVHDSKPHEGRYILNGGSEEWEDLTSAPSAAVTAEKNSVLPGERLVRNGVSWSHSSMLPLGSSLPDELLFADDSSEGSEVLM

[8] = test system: c-Src; test: as above
[9] = molecular target: FGFR1 (UniProt P11362); test: as above
Chain of FGFR1 (P11362 whole entry, looked up): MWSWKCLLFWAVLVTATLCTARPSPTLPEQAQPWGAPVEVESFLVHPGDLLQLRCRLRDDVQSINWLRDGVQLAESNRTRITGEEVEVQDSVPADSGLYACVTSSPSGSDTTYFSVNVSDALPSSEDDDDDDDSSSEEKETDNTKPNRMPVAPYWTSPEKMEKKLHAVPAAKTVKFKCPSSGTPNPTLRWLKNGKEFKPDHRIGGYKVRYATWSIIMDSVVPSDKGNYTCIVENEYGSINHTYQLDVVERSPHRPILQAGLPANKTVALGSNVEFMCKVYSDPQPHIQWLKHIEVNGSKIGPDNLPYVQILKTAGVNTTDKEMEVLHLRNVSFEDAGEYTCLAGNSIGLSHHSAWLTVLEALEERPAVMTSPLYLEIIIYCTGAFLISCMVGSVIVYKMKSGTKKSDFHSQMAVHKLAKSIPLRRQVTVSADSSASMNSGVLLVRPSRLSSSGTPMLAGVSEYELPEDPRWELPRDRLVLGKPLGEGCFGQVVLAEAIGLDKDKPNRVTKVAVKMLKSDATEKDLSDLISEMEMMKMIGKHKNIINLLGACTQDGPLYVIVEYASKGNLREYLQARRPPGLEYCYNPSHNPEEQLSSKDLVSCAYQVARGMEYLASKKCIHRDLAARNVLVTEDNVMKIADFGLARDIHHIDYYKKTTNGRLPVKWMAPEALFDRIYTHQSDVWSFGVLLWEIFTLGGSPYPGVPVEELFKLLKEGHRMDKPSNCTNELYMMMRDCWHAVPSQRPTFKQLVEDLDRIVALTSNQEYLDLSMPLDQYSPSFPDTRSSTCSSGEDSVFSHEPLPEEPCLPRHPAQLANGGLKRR

[10] = test system: c-Abl (mouse); test: as above
[11] = molecular target: FGFR3 (UniProt P22607); test: as above
[12] = molecular target: Jak2 (UniProt O60674); test: as above
Chain of Jak2 (O60674 whole entry, looked up): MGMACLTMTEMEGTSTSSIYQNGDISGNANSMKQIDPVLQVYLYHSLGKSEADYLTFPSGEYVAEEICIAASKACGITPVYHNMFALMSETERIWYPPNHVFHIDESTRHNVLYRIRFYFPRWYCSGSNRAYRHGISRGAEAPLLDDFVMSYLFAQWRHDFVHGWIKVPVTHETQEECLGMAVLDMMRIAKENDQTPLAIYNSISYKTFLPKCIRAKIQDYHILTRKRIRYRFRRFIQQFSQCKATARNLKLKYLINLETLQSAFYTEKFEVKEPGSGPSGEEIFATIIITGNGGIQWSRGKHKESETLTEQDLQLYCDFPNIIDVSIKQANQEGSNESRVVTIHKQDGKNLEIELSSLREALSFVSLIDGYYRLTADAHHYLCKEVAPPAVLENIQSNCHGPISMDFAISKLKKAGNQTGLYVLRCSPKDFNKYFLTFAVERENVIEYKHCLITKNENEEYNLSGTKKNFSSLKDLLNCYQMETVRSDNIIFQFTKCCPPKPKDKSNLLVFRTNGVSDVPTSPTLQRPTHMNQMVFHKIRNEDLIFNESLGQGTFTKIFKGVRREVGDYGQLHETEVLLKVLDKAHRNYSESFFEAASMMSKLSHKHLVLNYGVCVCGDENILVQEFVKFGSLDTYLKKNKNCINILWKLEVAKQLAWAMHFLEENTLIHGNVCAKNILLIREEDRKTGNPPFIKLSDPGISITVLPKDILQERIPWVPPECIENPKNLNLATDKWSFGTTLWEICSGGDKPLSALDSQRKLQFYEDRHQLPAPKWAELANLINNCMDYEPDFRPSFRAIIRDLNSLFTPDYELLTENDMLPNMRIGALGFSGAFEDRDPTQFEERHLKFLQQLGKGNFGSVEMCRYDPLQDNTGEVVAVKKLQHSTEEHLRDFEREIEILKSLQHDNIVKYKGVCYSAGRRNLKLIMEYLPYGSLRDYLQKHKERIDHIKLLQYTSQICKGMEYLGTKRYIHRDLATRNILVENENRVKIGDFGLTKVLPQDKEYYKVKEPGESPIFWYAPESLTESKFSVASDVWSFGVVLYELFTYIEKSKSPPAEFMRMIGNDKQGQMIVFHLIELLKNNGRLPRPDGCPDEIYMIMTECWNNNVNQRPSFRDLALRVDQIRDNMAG

[13] = molecular target: EPHB2 (UniProt P29323); test: as above
[14] = test system: AncSZ; test: as above
[15] = molecular target: Fyn (UniProt P06241); test: as above
Chain of Fyn (P06241 whole entry, looked up): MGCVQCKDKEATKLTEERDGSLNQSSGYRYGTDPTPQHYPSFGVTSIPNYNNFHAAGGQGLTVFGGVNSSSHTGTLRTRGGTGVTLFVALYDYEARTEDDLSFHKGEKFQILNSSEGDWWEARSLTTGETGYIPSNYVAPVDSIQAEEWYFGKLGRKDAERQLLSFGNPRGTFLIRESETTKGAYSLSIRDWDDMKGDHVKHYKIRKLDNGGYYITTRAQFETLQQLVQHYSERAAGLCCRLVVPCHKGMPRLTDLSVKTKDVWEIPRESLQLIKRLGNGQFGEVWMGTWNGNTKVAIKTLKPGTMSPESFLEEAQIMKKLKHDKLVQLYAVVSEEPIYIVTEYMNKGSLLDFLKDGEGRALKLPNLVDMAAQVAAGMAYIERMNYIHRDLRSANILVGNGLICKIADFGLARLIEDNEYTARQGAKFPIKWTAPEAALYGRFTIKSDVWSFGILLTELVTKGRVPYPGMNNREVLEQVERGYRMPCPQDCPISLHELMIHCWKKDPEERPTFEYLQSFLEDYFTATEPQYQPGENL

[16] = test system: Fer (mouse); test: as above
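For SH2 binding enrichment of the phosphorylated peptide, bacterial display in this document: peptide library displayed on the E. coli surface as eCPX fusions, selected cells deep-sequenced, score is each peptide's frequency after selection divided by its frequency in the input.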
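For phosphorylation enrichment, bacterial display in this document: 11-residue human phosphosite peptides and single-mutation variants displayed on the E. coli surface, counted by deep sequencing, each peptide's frequency after selection divided by its frequency in the unselected input library; frequency after pTyr selection over input frequency; kinase dosed for 20-30% of maximal phosphorylation in three min.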

Chain of Grb2 SH2 (P62993 whole entry, looked up): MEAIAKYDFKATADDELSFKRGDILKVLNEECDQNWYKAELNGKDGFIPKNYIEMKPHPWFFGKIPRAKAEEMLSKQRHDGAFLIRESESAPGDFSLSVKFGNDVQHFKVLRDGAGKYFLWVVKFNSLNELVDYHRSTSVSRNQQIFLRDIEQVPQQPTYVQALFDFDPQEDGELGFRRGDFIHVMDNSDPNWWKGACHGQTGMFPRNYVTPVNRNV

Row | Sequence | SH2 binding enrichment [1] | SH2 binding enrichment [2] | SH2 binding enrichment [3] | phosphorylation enrichment [4] | phosphorylation enrichment [5] | phosphorylation enrichment [6] | phosphorylation enrichment [7] | phosphorylation enrichment [8] | phosphorylation enrichment [9] | phosphorylation enrichment [10] | phosphorylation enrichment [11] | phosphorylation enrichment [12] | phosphorylation enrichment [13] | phosphorylation enrichment [14] | phosphorylation enrichment [15] | phosphorylation enrichment [16]
1 | TVSTRYTQPQP [SARG_Y259] | 0.744 | 0.81 | 1.03 | 0.561 | 0.37 | 0.386 | 0.394 | 0.364 | 0.446 | 0.576 | 0.39 | 0.605 | 0.427 | 0.616 | 0.442 | 0.471
2 | TWNPKYTLRSH [STRN3_Y474] | 1.11 | 0.943 | 0.883 | 0.74 | 0.492 | 0.399 | 0.409 | 0.348 | 0.433 | 0.473 | 0.54 | 0.524 | 0.468 | 0.614 | 0.426 | 0.378
3 | TWSPKYTLRSH [STRN3_Y474_N471S] | 1.28 | 1.2 | 1.16 | 0.87 | 0.419 | 0.593 | 0.426 | 0.348 | 0.353 | 0.52 | 0.529 | 0.728 | 0.477 | 0.735 | 0.445 | 0.389
4 | VAVVQYSGMGQ [COL6A1_Y878_T881M] | 0.763 | 0.603 | 0.927 | 0.757 | 0.416 | 0.382 | 0.524 | 0.451 | 0.44 | 0.62 | 0.506 | 0.612 | 0.363 | 0.554 | 0.439 | 0.407
5 | VDASFCGGRGV [ANTXR2_Y381_Y381C_YF] | 0.728 | 0.389 | 0.559 | 1.11 | 0.539 | 0.514 | 0.396 | 0.413 | 0.531 | 0.744 | 0.629 | 0.894 | 0.495 | 0.818 | 0.405 | 0.49
6 | VDSGVYAVPPP [BCAR1_Y410] | 0.863 | 0.434 | 0.624 | 0.795 | 8.02 | 7.54 | 9.97 | 4.94 | 1.2 | 20.9 | 1.01 | 0.709 | 19.6 | 2.04 | 8.7 | 5.46
7 | VFLGAYDHFLP [SLC22A5_Y486_R488H_YF] | 0.833 | 1.46 | 1 | 0.955 | 2.73 | 1.8 | 6.29 | 3.29 | 0.611 | 1.06 | 0.811 | 0.726 | 3.32 | 1.36 | 3.08 | 4.81
8 | VFSTDYFRVGG [NTRK2_Y706_YF] | 0.761 | 0.556 | 0.697 | 0.859 | 0.459 | 0.826 | 0.587 | 0.757 | 6.21 | 0.734 | 3.75 | 8.12 | 0.709 | 1.69 | 0.464 | 0.499
9 | VGTKRYMAPKV [ACVRL1_Y375_E379K] | 1.19 | 0.632 | 1.44 | 0.456 | 0.327 | 0.274 | 0.424 | 0.304 | 0.391 | 0.625 | 0.372 | 0.482 | 0.282 | 0.377 | 0.301 | 0.443
10 | VHFLVYHHHHH [CACNA1H_Y519_H516Y_YF] | 1.21 | 0.791 | 0.755 | 1.11 | 0.416 | 0.555 | 0.388 | 0.453 | 0.437 | 0.863 | 0.834 | 1.11 | 0.661 | 0.88 | 0.527 | 0.493
11 | VHNLDYFKKTT [FGFR3_Y647_YF] | 0.782 | 0.406 | 0.678 | 0.91 | 0.46 | 0.512 | 0.505 | 0.523 | 0.437 | 0.573 | 0.617 | 0.857 | 0.425 | 0.806 | 0.471 | 0.428
12 | VHNLNYFKKTT [FGFR3_Y647_D646N_YF] | 0.987 | 0.377 | 0.678 | 0.607 | 0.347 | 0.36 | 0.311 | 0.425 | 0.355 | 0.442 | 0.369 | 0.467 | 0.314 | 0.402 | 0.302 | 0.346
13 | VIVRMYDFHVL [RPF2_Y109_G106V_YF] | 1.75 | 1.12 | 1.28 | 1.01 | 0.488 | 1.33 | 1.87 | 0.473 | 0.462 | 0.885 | 0.597 | 0.901 | 1.55 | 1.08 | 0.555 | 4.04
14 | VLTSKYPGGGG [HBA1_Y141_R142P] | 0.737 | 0.366 | 0.612 | 0.443 | 0.296 | 0.229 | 0.392 | 0.276 | 0.28 | 0.342 | 0.342 | 0.441 | 0.374 | 0.349 | 0.344 | 0.303
15 | VPLLEYYWDIF [CDAN1_Y712_R714W] | 1.54 | 1.12 | 1.08 | 1.46 | 0.813 | 2.27 | 1.54 | 1.67 | 7.97 | 0.923 | 6.87 | 2.12 | 1.54 | 1.43 | 0.879 | 0.521
16 | VQVAYYTMMMN [SPATA17_Y84] | 1.21 | 1.56 | 1.56 | 1.54 | 1.65 | 2.52 | 6.47 | 2.56 | 8.59 | 1.15 | 6.58 | 4.11 | 1.17 | 1.81 | 1.48 | 3.67
17 | VRTGIYHGGEP [PIK3CA_Y361] | 0.888 | 0.51 | 0.588 | 0.659 | 0.586 | 0.419 | 0.431 | 0.498 | 0.542 | 0.496 | 0.407 | 0.558 | 0.421 | 0.641 | 0.568 | 0.457

Row | Sequence | SH2 binding enrichment [1] | SH2 binding enrichment [2] | SH2 binding enrichment [3] | phosphorylation enrichment [4] | phosphorylation enrichment [5] | phosphorylation enrichment [6] | phosphorylation enrichment [7] | phosphorylation enrichment [8] | phosphorylation enrichment [9] | phosphorylation enrichment [10] | phosphorylation enrichment [11] | phosphorylation enrichment [12] | phosphorylation enrichment [13] | phosphorylation enrichment [14] | phosphorylation enrichment [15] | phosphorylation enrichment [16]
18 | VSFDEYRFRSV [CFTR_Y515_YF] | 0.776 | 0.477 | 0.55 | 1.22 | 0.574 | 0.519 | 0.6 | 0.614 | 0.515 | 0.862 | 0.699 | 1.14 | 0.591 | 0.972 | 0.489 | 0.567
19 | VSFGEYRFRSV [CFTR_Y515_D513G_YF] | 0.792 | 0.528 | 0.9 | 0.801 | 0.469 | 0.431 | 0.395 | 0.489 | 0.523 | 0.672 | 0.513 | 0.574 | 0.443 | 0.668 | 0.356 | 0.402
20 | VSSPKYGGDDE [TMCC2_Y473_S475G] | 1.06 | 0.482 | 0.54 | 0.903 | 0.429 | 0.437 | 0.416 | 0.424 | 0.477 | 0.517 | 0.573 | 0.631 | 0.379 | 0.96 | 0.535 | 0.451
21 | VSYGEYRYRSV [CFTR_Y515_D513G] | 0.529 | 0.451 | 0.369 | 0.824 | 2.04 | 0.452 | 0.363 | 3.22 | 0.505 | 0.605 | 0.469 | 0.612 | 0.416 | 0.688 | 5.66 | 0.442
22 | VTGWGYRKLRE [F11_Y521_D526E] | 0.63 | 0.584 | 0.375 | 0.763 | 0.407 | 0.415 | 0.546 | 0.578 | 0.476 | 0.588 | 0.631 | 0.579 | 0.455 | 0.907 | 0.495 | 0.508
23 | VTNHIYTWVDP [DFNB31_Y234] | 1.14 | 1.05 | 0.956 | 2 | 3.06 | 2.73 | 7.06 | 3.2 | 3.77 | 0.711 | 3.33 | 0.87 | 1.63 | 2.57 | 4.26 | 10.2
24 | VTQEQYELYCE [CBL_Y368] | 1.04 | 0.625 | 0.577 | 1.32 | 0.989 | 0.814 | 0.571 | 0.892 | 0.622 | 0.883 | 0.894 | 1.17 | 0.71 | 1.75 | 0.684 | 0.887
25 | VVAHQYSFAPD [TNS3_Y601] | 0.702 | 1.31 | 0.657 | 0.736 | 0.515 | 0.521 | 0.414 | 0.481 | 0.74 | 0.504 | 0.727 | 0.529 | 0.353 | 0.684 | 0.542 | 0.401
26 | VYPATYHPDHW [EFCAB12_Y544] | 1.03 | 0.53 | 0.635 | 0.662 | 0.689 | 0.423 | 0.296 | 0.436 | 0.564 | 0.526 | 0.828 | 0.639 | 0.385 | 0.554 | 0.465 | 0.419
27 | VYSIDYYRVGG [NTRK2_Y706_T704I] | 0.884 | 2 | 1.61 | 0.836 | 3.95 | 4.12 | 9.3 | 5.1 | 10.9 | 0.788 | 9.09 | 7.33 | 3.13 | 2.29 | 6.29 | 3.79
28 | VYSSDYFSFVL [USP24_Y2138] | 0.798 | 0.442 | 0.62 | 1.35 | 1.95 | 3.74 | 5.03 | 4.61 | 9.06 | 2.92 | 7.74 | 5.25 | 3.95 | 2.21 | 4.46 | 0.875
29 | WAAQRYGRELR [BAD_Y110] | 0.758 | 0.508 | 0.583 | 0.742 | 0.476 | 0.406 | 0.514 | 0.487 | 0.464 | 0.599 | 0.396 | 0.782 | 0.433 | 0.887 | 0.445 | 0.398
30 | WEPFGFAVTRC [PTPRT_Y412_Y412F] | 0.774 | 0.368 | 0.694 | 1.48 | 0.456 | 0.702 | 0.399 | 0.409 | 0.447 | 1 | 0.845 | 1.4 | 0.653 | 1.18 | 0.409 | 0.548
31 | WFQTKYEELQI [KRT6B_Y360_YF] | 0.953 | 8.63 | 1.12 | 0.981 | 0.417 | 0.446 | 0.403 | 0.398 | 0.428 | 0.651 | 0.633 | 0.987 | 0.488 | 0.839 | 0.38 | 0.46
32 | WFQTKYEELQV [KRT6B_Y360_I365V_YF] | 0.891 | 8.95 | 1.08 | 0.94 | 0.442 | 0.462 | 0.305 | 0.329 | 0.478 | 0.712 | 0.564 | 0.788 | 0.525 | 0.915 | 0.359 | 0.459
33 | WGTAEYDSVVA [MAP1A_Y1883] | 0.893 | 1 | 0.639 | 1.24 | 1.16 | 0.685 | 0.456 | 0.819 | 0.583 | 0.703 | 0.817 | 1.18 | 0.86 | 1.4 | 0.66 | 1.57

Source: the supplement of paper PMC10065799, “High-throughput profiling of sequence recognition by tyrosine kinases and SH2 domains using bacterial peptide display” (eLife, 2023)
